Test results: the supplement of paper PMC7877785
± gives the uncertainty stated by the source.

Assay: self-splicing fitness, log relative to wild type (ln ratio); higher = more splicing; Tetrahymena group I intron in knt gene, E. coli kanamycin selection, DiMSum; sequences stand for … in CUCUCU…GGAGGGAAAAGUUAUCAGGCAUGCACCUGGUAGCUAGUCUUUAAACCAAUAGAUUGCAUCGGUUUAAAAGGCAAGACCGUCAAAUUGCGGGAAAGGGGUCAACAGCCGUUCAGUACCAAGUCUCAGGGGAAACUUUGAGAUGGCCUUGCAAAGGGUAUGGUAAUAAGCUGACGGACAUGGUCCUAACCACGCAGCCAAGUCCUAAGUCAACAGAUCUUCUGUUGAUAUGGAUGCAGUUCACAGACUAAAUGUCGGUCGGGGAAGAUGUAUUCUUCUCAUAAGAUAUAGUCGGACCUCUCCUUAAUGGGAGCUAGCGGAUGAAGUGAUGCAACACUGGAGCCGCUGGGAACUAAUUUGUAUGCGAAAGUAUAUUGAUUAGUUUUGGAGUACUCGUGGUCG
Summary of the method: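 Fitness was computed with DiMSum as the error-weighted combination of replicate fold changes, kanamycin versus none, each normalised to wild type. The library randomised all eight intron nucleotides of the P1ex region, with the intron placed in the knt kanamycin-resistance gene on pET-22b(+) in E. coli BL21(DE3). Six replicate transformations were grown overnight at 37°C or 30°C on LB agar with or without 25 μg/mL kanamycin, plus 100 μg/mL carbenicillin, 50 μM IPTG and 0.2% rhamnose. Pooled colonies were amplicon-sequenced on an Illumina HiSeq 2500.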

AAAUAGCAAUAUUACGGUUC
self-splicing fitness (ln) (30 °C): -1.21 ± 0.11
self-splicing fitness (ln) (37 °C): -0.851 ± 0.16

GGAGAGCAAUAUUACGGGCU
self-splicing fitness (ln) (30 °C): -2.73 ± 0.27

UAAAAGCAAUAUUACGCUGU
self-splicing fitness (ln) (30 °C): -3.01 ± 0.23
self-splicing fitness (ln) (37 °C): -2.26 ± 0.2

UCCGAGCAAUAUUACGAUUG
self-splicing fitness (ln) (30 °C): -3.7 ± 0.28
self-splicing fitness (ln) (37 °C): -1.77 ± 0.28

UAUGAGCAAUAUUACGAGAA
self-splicing fitness (ln) (30 °C): -2.28 ± 0.37
self-splicing fitness (ln) (37 °C): -0.332 ± 0.24

AUGUAGCAAUAUUACGACCU
self-splicing fitness (ln) (30 °C): -0.739 ± 0.28
self-splicing fitness (ln) (37 °C): -0.136 ± 0.34

AACUAGCAAUAUUACGCGGG
self-splicing fitness (ln) (30 °C): -2.78 ± 0.15
self-splicing fitness (ln) (37 °C): -2.37 ± 0.19

AUAUAGCAAUAUUACGGAGU
self-splicing fitness (ln) (30 °C): -2.29 ± 0.13
self-splicing fitness (ln) (37 °C): -1.82 ± 0.2

UUAUAGCAAUAUUACGUAUA
self-splicing fitness (ln) (30 °C): -2.29 ± 0.15
self-splicing fitness (ln) (37 °C): -1.42 ± 0.13

UCCUAGCAAUAUUACGACUA
self-splicing fitness (ln) (30 °C): -1.23 ± 0.38
self-splicing fitness (ln) (37 °C): -2.73 ± 0.41

AAUUAGCAAUAUUACGUCCA
self-splicing fitness (ln) (30 °C): -0.685 ± 0.087
self-splicing fitness (ln) (37 °C): -1.2 ± 0.096

ACGUAGCAAUAUUACGAAAC
self-splicing fitness (ln) (30 °C): -2.02 ± 0.45
self-splicing fitness (ln) (37 °C): -2.26 ± 0.4

UGUUAGCAAUAUUACGCGGG
self-splicing fitness (ln) (30 °C): -2.74 ± 0.29
self-splicing fitness (ln) (37 °C): -1.57 ± 0.26

GUCGAGCAAUAUUACGCGCU
self-splicing fitness (ln) (30 °C): -2.6 ± 0.3
self-splicing fitness (ln) (37 °C): -1.17 ± 0.32

UUUCAGCAAUAUUACGAAAC
self-splicing fitness (ln) (37 °C): -2.53 ± 0.3

GUAUAGCAAUAUUACGAGUA
self-splicing fitness (ln) (30 °C): -1.18 ± 0.19
self-splicing fitness (ln) (37 °C): -1.77 ± 0.22

CAAAAGCAAUAUUACGCCCG
self-splicing fitness (ln) (30 °C): -0.0339 ± 0.13
self-splicing fitness (ln) (37 °C): 0.354 ± 0.15

AUAAAGCAAUAUUACGACAA
self-splicing fitness (ln) (30 °C): -0.556 ± 0.086
self-splicing fitness (ln) (37 °C): 0.621 ± 0.12

UCCGAGCAAUAUUACGAAUA
self-splicing fitness (ln) (30 °C): -2.95 ± 0.25

UCUUAGCAAUAUUACGAACG
self-splicing fitness (ln) (30 °C): -0.815 ± 0.15
self-splicing fitness (ln) (37 °C): -1 ± 0.2

GGCGAGCAAUAUUACGAAUC
self-splicing fitness (ln) (30 °C): -1.03 ± 0.051
self-splicing fitness (ln) (37 °C): -0.145 ± 0.067

AGACAGCAAUAUUACGAAAG
self-splicing fitness (ln) (30 °C): -2.18 ± 0.17
self-splicing fitness (ln) (37 °C): -2.48 ± 0.21

CACCAGCAAUAUUACGGCUA
self-splicing fitness (ln) (30 °C): -1.1 ± 0.083
self-splicing fitness (ln) (37 °C): -0.202 ± 0.074

GGGGAGCAAUAUUACGGGCA
self-splicing fitness (ln) (30 °C): -2.87 ± 0.34
self-splicing fitness (ln) (37 °C): -1.47 ± 0.26

GCAGAGCAAUAUUACGUUGU
self-splicing fitness (ln) (30 °C): -5.06 ± 0.46
self-splicing fitness (ln) (37 °C): -3.02 ± 0.29

AAUCAGCAAUAUUACGCAUU
self-splicing fitness (ln) (30 °C): -1.1 ± 0.072
self-splicing fitness (ln) (37 °C): -0.498 ± 0.086

GAAAAGCAAUAUUACGAGCU
self-splicing fitness (ln) (30 °C): -0.618 ± 0.069
self-splicing fitness (ln) (37 °C): -0.352 ± 0.091

AGUAAGCAAUAUUACGAGGG
self-splicing fitness (ln) (30 °C): -3.06 ± 0.18
self-splicing fitness (ln) (37 °C): -2.87 ± 0.28

CCGGAGCAAUAUUACGAACG
self-splicing fitness (ln) (30 °C): -0.608 ± 0.16
self-splicing fitness (ln) (37 °C): 0.0318 ± 0.19

AGACAGCAAUAUUACGGCGG
self-splicing fitness (ln) (30 °C): -2.25 ± 0.13
self-splicing fitness (ln) (37 °C): -0.609 ± 0.14

GGACAGCAAUAUUACGGAUA
self-splicing fitness (ln) (30 °C): -1.13 ± 0.11
self-splicing fitness (ln) (37 °C): -1.51 ± 0.093

AAUCAGCAAUAUUACGCAGG
self-splicing fitness (ln) (30 °C): -1.51 ± 0.11
self-splicing fitness (ln) (37 °C): 0.11 ± 0.097

GUUAAGCAAUAUUACGCCAG
self-splicing fitness (ln) (30 °C): -3.1 ± 0.23
self-splicing fitness (ln) (37 °C): -2.75 ± 0.28

AAUAAGCAAUAUUACGUCUC
self-splicing fitness (ln) (30 °C): -1.68 ± 0.11
self-splicing fitness (ln) (37 °C): -0.799 ± 0.13

AGAGAGCAAUAUUACGAUCA
self-splicing fitness (ln) (30 °C): -1.93 ± 0.16
self-splicing fitness (ln) (37 °C): -1.44 ± 0.17

ACCCAGCAAUAUUACGUAGG
self-splicing fitness (ln) (30 °C): -0.517 ± 0.064
self-splicing fitness (ln) (37 °C): -0.48 ± 0.081

GGCUAGCAAUAUUACGCAAC
self-splicing fitness (ln) (30 °C): -1.61 ± 0.11
self-splicing fitness (ln) (37 °C): -0.72 ± 0.12

CCAGAGCAAUAUUACGGAAG
self-splicing fitness (ln) (30 °C): -2.32 ± 0.13
self-splicing fitness (ln) (37 °C): -2.1 ± 0.19

UACGAGCAAUAUUACGAAGU
self-splicing fitness (ln) (30 °C): -4.33 ± 0.39
self-splicing fitness (ln) (37 °C): -2.41 ± 0.24

CGUCAGCAAUAUUACGACAA
self-splicing fitness (ln) (30 °C): -0.159 ± 0.14
self-splicing fitness (ln) (37 °C): 0.0303 ± 0.14

CGUCAGCAAUAUUACGCGCC
self-splicing fitness (ln) (30 °C): -1.58 ± 0.16
self-splicing fitness (ln) (37 °C): -0.529 ± 0.29

GAUGAGCAAUAUUACGCCAU
self-splicing fitness (ln) (30 °C): -2.56 ± 0.14

CCAUAGCAAUAUUACGUCGC
self-splicing fitness (ln) (30 °C): -3.46 ± 0.22
self-splicing fitness (ln) (37 °C): -3.74 ± 0.31

ACACAGCAAUAUUACGGAUA
self-splicing fitness (ln) (30 °C): -2.87 ± 0.15
self-splicing fitness (ln) (37 °C): -2.54 ± 0.15

CUACAGCAAUAUUACGAUCA
self-splicing fitness (ln) (30 °C): -1.82 ± 0.17
self-splicing fitness (ln) (37 °C): -1.49 ± 0.2

GUGCAGCAAUAUUACGUAGU
self-splicing fitness (ln) (30 °C): -1.37 ± 0.083
self-splicing fitness (ln) (37 °C): -0.784 ± 0.12

AAGCAGCAAUAUUACGGGAG
self-splicing fitness (ln) (30 °C): -3.74 ± 0.16
self-splicing fitness (ln) (37 °C): -3.05 ± 0.23

CAAGAGCAAUAUUACGCGAU
self-splicing fitness (ln) (30 °C): -2.62 ± 0.22
self-splicing fitness (ln) (37 °C): -2.51 ± 0.49

GUAGAGCAAUAUUACGAAUU
self-splicing fitness (ln) (30 °C): -2.35 ± 0.21
self-splicing fitness (ln) (37 °C): -2.01 ± 0.35

CUUAAGCAAUAUUACGGAUG
self-splicing fitness (ln) (30 °C): -0.76 ± 0.056
self-splicing fitness (ln) (37 °C): -0.0373 ± 0.077

UUUGAGCAAUAUUACGGAUG
self-splicing fitness (ln) (30 °C): -2.66 ± 0.21

UACAAGCAAUAUUACGGCAG
self-splicing fitness (ln) (30 °C): -0.426 ± 0.078
self-splicing fitness (ln) (37 °C): -0.134 ± 0.11

UACGAGCAAUAUUACGCCAU
self-splicing fitness (ln) (37 °C): -1.84 ± 0.31

CCCCAGCAAUAUUACGACAA
self-splicing fitness (ln) (37 °C): -2.78 ± 0.28

GAAUAGCAAUAUUACGUCGA
self-splicing fitness (ln) (30 °C): -0.367 ± 0.11
self-splicing fitness (ln) (37 °C): -0.794 ± 0.12

UACCAGCAAUAUUACGCCUU
self-splicing fitness (ln) (30 °C): -0.707 ± 0.066
self-splicing fitness (ln) (37 °C): -0.62 ± 0.074

CAGAAGCAAUAUUACGCGAA
self-splicing fitness (ln) (37 °C): -1.94 ± 0.23

GUGGAGCAAUAUUACGCCCU
self-splicing fitness (ln) (30 °C): -1.79 ± 0.32
self-splicing fitness (ln) (37 °C): -1.87 ± 0.26

CACGAGCAAUAUUACGCGGC
self-splicing fitness (ln) (37 °C): -1.38 ± 0.22

AACAAGCAAUAUUACGACCC
self-splicing fitness (ln) (30 °C): -0.136 ± 0.22
self-splicing fitness (ln) (37 °C): 0.116 ± 0.24

CUAAAGCAAUAUUACGCAGC
self-splicing fitness (ln) (30 °C): -3.5 ± 0.33
self-splicing fitness (ln) (37 °C): -2.3 ± 0.44

AGACAGCAAUAUUACGAUCA
self-splicing fitness (ln) (30 °C): -0.682 ± 0.074
self-splicing fitness (ln) (37 °C): 0.267 ± 0.089

UGUUAGCAAUAUUACGGUUA
self-splicing fitness (ln) (30 °C): -0.39 ± 0.086
self-splicing fitness (ln) (37 °C): 0.504 ± 0.088

UCAAAGCAAUAUUACGUACA
self-splicing fitness (ln) (30 °C): -1.2 ± 0.14
self-splicing fitness (ln) (37 °C): -0.562 ± 0.16

CUCUAGCAAUAUUACGAGGU
self-splicing fitness (ln) (30 °C): -3.21 ± 0.26
self-splicing fitness (ln) (37 °C): -3.6 ± 0.29

CUAUAGCAAUAUUACGGCUA
self-splicing fitness (ln) (30 °C): -2.95 ± 0.28
self-splicing fitness (ln) (37 °C): -3.42 ± 0.47

UUACAGCAAUAUUACGACAA
self-splicing fitness (ln) (30 °C): -0.25 ± 0.07
self-splicing fitness (ln) (37 °C): 0.353 ± 0.083

UUCAAGCAAUAUUACGACUC
self-splicing fitness (ln) (30 °C): -1.98 ± 0.24
self-splicing fitness (ln) (37 °C): -0.791 ± 0.22

AAGGAGCAAUAUUACGUCUC
self-splicing fitness (ln) (30 °C): -2.84 ± 0.48

CGUAAGCAAUAUUACGACCU
self-splicing fitness (ln) (30 °C): -1.97 ± 0.17
self-splicing fitness (ln) (37 °C): -0.549 ± 0.16

GCCGAGCAAUAUUACGUUUC
self-splicing fitness (ln) (30 °C): -3.12 ± 0.14
self-splicing fitness (ln) (37 °C): -2.28 ± 0.15

CUAGAGCAAUAUUACGCCAU
self-splicing fitness (ln) (30 °C): -3.39 ± 0.19
self-splicing fitness (ln) (37 °C): -3.11 ± 0.29

AAAAAGCAAUAUUACGAGAU
self-splicing fitness (ln) (30 °C): -2.85 ± 0.13
self-splicing fitness (ln) (37 °C): -1.86 ± 0.2

ACUGAGCAAUAUUACGCUAA
self-splicing fitness (ln) (30 °C): -3.41 ± 0.43
self-splicing fitness (ln) (37 °C): -3.71 ± 0.39

GGGUAGCAAUAUUACGAUUG
self-splicing fitness (ln) (30 °C): -1.63 ± 0.23
self-splicing fitness (ln) (37 °C): -2.13 ± 0.25

AUGUAGCAAUAUUACGGUAG
self-splicing fitness (ln) (30 °C): -4.38 ± 0.32
self-splicing fitness (ln) (37 °C): -3.33 ± 0.42

CGGUAGCAAUAUUACGUCUG
self-splicing fitness (ln) (30 °C): -0.631 ± 0.086
self-splicing fitness (ln) (37 °C): -0.338 ± 0.11

CCGUAGCAAUAUUACGUCGG
self-splicing fitness (ln) (30 °C): -3.57 ± 0.17
self-splicing fitness (ln) (37 °C): -3.02 ± 0.23
